Measurements from publication PMC9352680, “A comprehensive thermodynamic model for RNA binding by the Saccharomyces cerevisiae Pumilio protein PUF4”.

Molecular target: T1, PUF4 RNA-binding domain (Saccharomyces cerevisiae, UniProt P25339 537-888)
T1 sequence: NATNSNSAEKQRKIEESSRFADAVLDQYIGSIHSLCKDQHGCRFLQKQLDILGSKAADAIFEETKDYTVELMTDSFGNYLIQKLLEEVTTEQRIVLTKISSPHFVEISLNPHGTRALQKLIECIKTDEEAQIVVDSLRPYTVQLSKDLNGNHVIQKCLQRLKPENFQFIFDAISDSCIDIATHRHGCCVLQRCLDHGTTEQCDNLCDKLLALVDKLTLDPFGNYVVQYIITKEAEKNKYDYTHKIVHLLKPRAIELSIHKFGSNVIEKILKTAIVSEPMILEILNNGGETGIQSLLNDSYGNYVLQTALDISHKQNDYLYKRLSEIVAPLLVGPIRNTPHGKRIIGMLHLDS
Test: Mg; RNA-MaP; 20 mM Na-HEPES pH 7.4, 30 mM KOAc, 0.75 mM MgCl2, 0.1% Tween-20, 5% glycerol, 0.1 mg/mL BSA, 2 mM DTT; 25 C; 0.0125-409.6 nM protein
Conditions: tags: N-His6-TEV cleaved; C-SNAP kept, Cy3B-labelled; label: tethered on chip by stalled RNA polymerase

## UCUCUUUGUAAUAUAUCUCUU (ssRNA) [Ic_S1_P4E.1_K4.1_C4.1_H4.1_A4.1_[T5A]_[A6T]_[T7A]_F4.1_T4.1]
  Kd: 2.68 nM

## UCUCUUUGUAAUUGGUCUCUU (ssRNA) [Ic_S1_P4E.1_K4.1_C4.1_H4.1_A4.1_[T5A]_[A6T]_F4.1_[T8G]_[A9G]_T4.1]
  Kd: 1880 nM

## UCUCUUUGUAAUUGCUCUCUU (ssRNA) [Ic_S1_P4E.1_K4.1_C4.1_H4.1_A4.1_[T5A]_[A6T]_F4.1_[T8G]_[A9C]_T4.1]
  Kd: 682 nM

## UCUCUUUGUAAUUGUUCUCUU (ssRNA) [Ic_S1_P4E.1_K4.1_C4.1_H4.1_A4.1_[T5A]_[A6T]_F4.1_[T8G]_[A9T]_T4.1]
  Kd: 98.4 nM

## UCUCUUUGUAAUUGAUCUCUU (ssRNA) [Ic_S1_P4E.1_K4.1_C4.1_H4.1_A4.1_[T5A]_[A6T]_F4.1_[T8G]_T4.1]
  Kd: 712 nM

## UCUCUUUGUAAUUCGUCUCUU (ssRNA) [Ic_S1_P4E.1_K4.1_C4.1_H4.1_A4.1_[T5A]_[A6T]_F4.1_[T8C]_[A9G]_T4.1]
  Kd: 517 nM

## UCUCUUUGUAAUUCUUCUCUU (ssRNA) [Ic_S1_P4E.1_K4.1_C4.1_H4.1_A4.1_[T5A]_[A6T]_F4.1_[T8C]_[A9T]_T4.1]
  Kd: 123 nM

## UCUCUUUGUCUAUUUCUCUU (ssRNA) [Ib_S1_P3E.1_K3.1_C3.1_H3.1_[A4C]_A3.1_F3.1_[A8T]_T3.1]
  Kd: 823 nM

## UCUCUUUGUAAUUAGUCUCUU (ssRNA) [Ic_S1_P4E.1_K4.1_C4.1_H4.1_A4.1_[T5A]_[A6T]_F4.1_[T8A]_[A9G]_T4.1]
  Kd: 126 nM

## UCUCUUUGUAAUUACUCUCUU (ssRNA) [Ic_S1_P4E.1_K4.1_C4.1_H4.1_A4.1_[T5A]_[A6T]_F4.1_[T8A]_[A9C]_T4.1]
  Kd: 670 nM

## UCUCUUUGUAAUUAUUCUCUU (ssRNA) [Ic_S1_P4E.1_K4.1_C4.1_H4.1_A4.1_[T5A]_[A6T]_F4.1_[T8A]_[A9T]_T4.1]
  Kd: 92.4 nM

## UCUCUUUGUAAUUAAUCUCUU (ssRNA) [Ic_S1_P4E.1_K4.1_C4.1_H4.1_A4.1_[T5A]_[A6T]_F4.1_[T8A]_T4.1]
  Kd: 216 nM

## UCUCUUUGUAAUUUGUCUCUU (ssRNA) [Ic_S1_P4E.1_K4.1_C4.1_H4.1_A4.1_[T5A]_[A6T]_F4.1_[A9G]_T4.1]
  Kd: 28.5 nM

## UCUCUUUGUAAUUUCUCUCUU (ssRNA) [Ic_S1_P4E.1_K4.1_C4.1_H4.1_A4.1_[T5A]_[A6T]_F4.1_[A9C]_T4.1]
  Kd: 83.9 nM

## UCUCUUUGUAAUUUUUCUCUU (ssRNA) [Ic_S1_P4E.1_K4.1_C4.1_H4.1_A4.1_[T5A]_[A6T]_F4.1_[A9T]_T4.1]
  Kd: 34.7 nM

## UCUCUUUGUAAAGCGUCUCUU (ssRNA) [Ic_S1_P4E.1_K4.1_C4.1_H4.1_A4.1_[T5A]_[T7G]_F4.1_[T8C]_[A9G]_T4.1]
  Kd: 2010 nM

## UCUCUUUGUAAAGCCUCUCUU (ssRNA) [Ic_S1_P4E.1_K4.1_C4.1_H4.1_A4.1_[T5A]_[T7G]_F4.1_[T8C]_[A9C]_T4.1]
  Kd: 1020 nM

## UCUCUUUGUAAAGCUUCUCUU (ssRNA) [Ic_S1_P4E.1_K4.1_C4.1_H4.1_A4.1_[T5A]_[T7G]_F4.1_[T8C]_[A9T]_T4.1]
  Kd: 658 nM

## UCUCUUUGUUUAUUUCUCUU (ssRNA) [Ib_S1_P3E.1_K3.1_C3.1_H3.1_[A4T]_A3.1_F3.1_[A8T]_T3.1]
  Kd: 426 nM

## UCUCUUUGUAAAGCAUCUCUU (ssRNA) [Ic_S1_P4E.1_K4.1_C4.1_H4.1_A4.1_[T5A]_[T7G]_F4.1_[T8C]_T4.1]
  Kd: 387 nM

## UCUCUUUGUAAAGUCUCUCUU (ssRNA) [Ic_S1_P4E.1_K4.1_C4.1_H4.1_A4.1_[T5A]_[T7G]_F4.1_[A9C]_T4.1]
  Kd: 406 nM

## UCUCUUUGUAAACGCUCUCUU (ssRNA) [Ic_S1_P4E.1_K4.1_C4.1_H4.1_A4.1_[T5A]_[T7C]_F4.1_[T8G]_[A9C]_T4.1]
  Kd: 833 nM

## UCUCUUUGUAAACCGUCUCUU (ssRNA) [Ic_S1_P4E.1_K4.1_C4.1_H4.1_A4.1_[T5A]_[T7C]_F4.1_[T8C]_[A9G]_T4.1]
  Kd: 951 nM

## UCUCUUUGUAAACCCUCUCUU (ssRNA) [Ic_S1_P4E.1_K4.1_C4.1_H4.1_A4.1_[T5A]_[T7C]_F4.1_[T8C]_[A9C]_T4.1]
  Kd: 1020 nM

## UCUCUUUGUAAACAGUCUCUU (ssRNA) [Ic_S1_P4E.1_K4.1_C4.1_H4.1_A4.1_[T5A]_[T7C]_F4.1_[T8A]_[A9G]_T4.1]
  Kd: 508 nM

## UCUCUUUGUAAACACUCUCUU (ssRNA) [Ic_S1_P4E.1_K4.1_C4.1_H4.1_A4.1_[T5A]_[T7C]_F4.1_[T8A]_[A9C]_T4.1]
  Kd: 565 nM

## UCUCUUUGUAAACAUUCUCUU (ssRNA) [Ic_S1_P4E.1_K4.1_C4.1_H4.1_A4.1_[T5A]_[T7C]_F4.1_[T8A]_[A9T]_T4.1]
  Kd: 165 nM

## UCUCUUUGUAAACAAUCUCUU (ssRNA) [Ic_S1_P4E.1_K4.1_C4.1_H4.1_A4.1_[T5A]_[T7C]_F4.1_[T8A]_T4.1]
  Kd: 57.4 nM

## UCUCUUUGUAAACUGUCUCUU (ssRNA) [Ic_S1_P4E.1_K4.1_C4.1_H4.1_A4.1_[T5A]_[T7C]_F4.1_[A9G]_T4.1]
  Kd: 17.2 nM

## UCUCUUUGUACACAUCUCUU (ssRNA) [Ic_S1_P3E.1_K3.1_C3.1_H3.1_A3.1_[T5C]_F3.1_[T7C]_T3.1]
  Kd: 46.1 nM

## UCUCUUUGUAAACUCUCUCUU (ssRNA) [Ic_S1_P4E.1_K4.1_C4.1_H4.1_A4.1_[T5A]_[T7C]_F4.1_[A9C]_T4.1]
  Kd: 33.8 nM

## UCUCUUUGUAAACUUUCUCUU (ssRNA) [Ic_S1_P4E.1_K4.1_C4.1_H4.1_A4.1_[T5A]_[T7C]_F4.1_[A9T]_T4.1]
  Kd: 24.7 nM
